* marks the point of attachment. X1 = 1,2‑dioleoyl‑sn‑glycero‑3‑succinate, CCCCCCCC/C=C\CCCCCCCC(=O)OC[C@H](COC(=O)CCC(=O)*)OC(=O)CCCCCCC/C=C\CCCCCCCC
Legend:
[1] = target: endothelin receptors on A549 human lung epithelial carcinoma cells (human); experiment: cell-based or functional assay
[2] = target: endothelin receptors on rat peritoneal mast cells (RBL) (rat); experiment: cell-based or functional assay

B1: liposome complex comprising the conjugated endothelin peptide ligand 1,2-dioleoyl-sn-glycero-3-succinate-Cys-His-Leu-Asp-Ile-Ile-Trp-COOH (peptide)
peptide: X1-CHLDIIW-OH
modifications: not fully specified; printed as 1,2-dioleoyl-sn-glycero-3-succinate-Cys-His-Leu-Asp-Ile-Ile-Trp-COOH; also: lipid conjugate incorporated in liposomes
Q: Which recovery of endothelin receptors after internalization [1] does the source give for B1 here?
A: 100%

Q: And the reduction of endothelin receptors after pre-exposure to unlabeled liposomes [1]?
A: 50%

Q: And the reduction of endothelin receptors after pre-exposure to unlabeled liposomes [2]?
A: 50%

From patent US20090220587A1
